Data from patent US20220403025A1.
Positions count from the first letter of the chain named.

B1: 1251_P02_G10 (IgG1) (antibody, V domains shown)
VH: EVQLVESGGGLVQPGGSLRLSCAASGFTFSDYYMSWIRQAPGKGLEWVSYISSSGSTIYYADSVKGRFTISRDNAKNSLYLQMNSLRAEDTAVYYCARHSWNDAFDIWGRGTLVTVSS
VL: DIQMTQSPSSLSASVGDRVTITCRASQSISSHLNWYQQKPGKAPKLLIYAASSLQSGVPSRFSASGSGTDFTLTISSLQPEDFATYYCQQSYSTLLTFGGGTKVEIKR
B2: 1245_P01_G09 (scFv) (scFv)
scFv: QVQLQQSGPGLVKPSQTLSLTCAISGDSVSSNSAAWNWIRQSPSRGLEWLGRTYYGSKWYNEYALSVKSRIIINPDTSKNQFSLQLNSVTPEDTAVYYCARDYYYSMDVWGQGTLVTVSSGGGGSGGGGSGGGASDIVMTQSPSTLSASIGDRVTITCRAGQSISTWLAWYQQKPGKAPKLLIYDASSLESGVPLRFSGSGSGTEFTLAISSLQPDDFATYYCQQSYSTPVTFGQGTKVEIK
B3: 1139_P01_E04 (scFv) (scFv)
scFv: QVQLQQSGPGLVKPSQTLSLTCAISGDSVSSNSAAWNWIRQSPSRGLEWLGRTYYRSKWYNDYAVSVRSRITINPDTSKNQFSLQLNSVTPEDTAVYYCARSWNDAFDIWGQGTTVTVSSGGGGSGGGGSGGGASDIVMTQSPSTLSASIGDRVTITCRAGQSISTWLAWYQQKPGKAPKLLIYDASSLESGVPLRFSGSGSGTDFTLTISSLQPEDFATYYCQQSYSTPLTFGGGTKVEIK
B4: 1252_P01_C08 (scFv) (scFv)
scFv: EVQLLESGGGLVQPGRSLRLSCAASGFTVSSNYMSWVRQAPGKGLEWVSVIYSGGSTYYADSVKGRFTISRDNSKNTLYLQMNSLRAEDTAVYYCASPIELGAFDIWGQGTLVTVSSGGGGSGGGGSGGGASSYELTQPPSVSVAPGKTARITCGGNNIGSQSVHWYQQKPGQAPMLVIYYDSDRPSGIPERFSGSNSGNTATLTISRVEAGDEADYYCQVWDSSSDHVVFGGGTKLTVL
B5: 1245_P02_F07 (scFv) (scFv)
scFv: QVQLQQSGPGLVKPSQTLSLTCVISGDSVSSNSAAWNWIRQSPSRGLEWLGRTYYRSKWYNDYAVSVKSRITINPDTSKNQFSLQLNSVTPEDTAVYYCARDYYYSMDVWGQGTMVTVSSGGGGSGGGGSGGGASDIQMTQSPSTLSASVGDRVTITCRASQSISSWLAWYQQKPGKAPKLLIYDASSLESGVPLRFSGSGSGTEFTLTISSLQPDDFATYYCQQSHSHPPTFGPGTKVDIK
B6: 1245_P01_E07 (scFv) (scFv)
scFv: QVQLVESGGGLVKPGGSLRLSCAASGFTFSDYYMSWIRQAPGKGLEWVSYISSSGSTIYYADSVKGRFTISRDNAKNSLYLQMNSLRAEDTAVYYCARVDYADAFDIWGQGTLVTVSSGGGGSGGGGSGGGASDIQMTQSPSSLSASVGDRVTIACRAGQSIGTYLNWYQQKPGKAPKLLIYVASSLQSGVPSRFSGSGSGTEFTLTISSLQPEDFATYYCQQSYSTLLTFGRGTKVEIK
B7: 1245_P02_G04 (scFv) (scFv)
scFv: QVQLQQSGPGLVKPSQTLSLTCAISGDSVSSKSAAWNWIRQSPSRGLEWLGRTYYRSKWSTDYAASVKSRITINPDTSKNQLSLQLNSVTPEDTAVYYCARTWSGYVDVWGQGTLVTVSSGGGGSGGGGSGGGASDIQMTQSPPALSASVGDRVTITCRASQDINDWLAWYQHKPGKAPKLLIYDASSLESGVPSRFSGSGSGTEFTLTISSLQPDDFATYYCQQSYSTPQVTFGQGTRLEIK
B8: 1251_P02_G10 (scFv) (scFv)
scFv: EVQLVESGGGLVQPGGSLRLSCAASGFTFSDYYMSWIRQAPGKGLEWVSYISSSGSTIYYADSVKGRFTISRDNAKNSLYLQMNSLRAEDTAVYYCARHSWNDAFDIWGRGTLVTVSSGGGGSGGGGSGGGASDIQMTQSPSSLSASVGDRVTITCRASQSISSHLNWYQQKPGKAPKLLIYAASSLQSGVPSRFSASGSGTDFTLTISSLQPEDFATYYCQQSYSTLLTFGGGTKVEIK
B9: 1141_P01_E01 (scFv) (scFv)
scFv: QVQLVQSGAEVKKPGESLKISCKGSGYSFTSYWIGWVRQMPGKGLEWMGIIYPGDSDTRYSPSFQGQVTISADKSISTAYLQWSSLKASDTAMYYCARHQVDTRTADYWGQGTLVTVSSGGGGSGGGGSGGGASQSALTQPASVSGSPGQSVTISCTGTRSDVGGYNYVSWYQHHPGKAPKLMIYEVSNRPSGVSNRFSGSKSGNTASLTISGLQAEDEADYYCSSYTSTSTLVFGGGTKLTVL
B10: 1251_P02_C05 (scFv) (scFv)
scFv: EVQLLESGGGLVQPGGSLRLSCAASGFTFSSYAMSWVRQAPGKGLEWVSAISGGGGTTYSSDSVKGRFTISRDNSKNTLYLQMNSLRAEDTAVYYCARDSGVAFDIWGQGTLVTVSSGGGGSGGGGSGGGASDIQMTQSPSFLSASVGDRVTITCRASQNIRTWLAWYQQKPGRAPKLLIYDASSLESGVPSRFSGSGSGTDFTLTISSLQPEDFATYYCQQFKRYPPTFGLGTKVEIK
B11: 1245_P02_G04 (IgG1, made in HEK) (antibody, V domains shown)
VH: QVQLQQSGPGLVKPSQTLSLTCAISGDSVSSKSAAWNWIRQSPSRGLEWLGRTYYRSKWSTDYAASVKSRITINPDTSKNQLSLQLNSVTPEDTAVYYCARTWSGYVDVWGQGTLVTVSS
VL: DIQMTQSPPALSASVGDRVTITCRASQDINDWLAWYQHKPGKAPKLLIYDASSLESGVPSRFSGSGSGTEFTLTISSLQPDDFATYYCQQSYSTPQVTFGQGTRLEIK
B12: AD4 (hinge modified AD3, made in CHO) (antibody, V domains shown)
VH: B11 VH with Q1E
VL: B11 VL
B13: AD3 (variant G04, made in CHO) (antibody, V domains shown)
VH: B11 VH with Q1E
VL: B11 VL
B14: AD3gly (defucosylated AD3 made in engineered CHO) (antibody, V domains shown)
VH: B11 VH with Q1E
VL: B11 VL

These binders were tested against Vδ1 γδ T cell receptor on skin-derived γδ T cells (human) (assay: cell-based or functional assay).

Row | TCR downregulation (EC50 µg/ml - 3 donors) [µg/mL] | Binder
1 | 0.849 | B1

These binders were tested against L1 (DV1-GV4) antigen: soluble heterodimeric γδ TCR in leucine zipper format (TRDV1/TRGV4) (human) (assay: DELFIA affinity ranking with 100 nM biotinylated L1).
Chain of L1 (DV1-GV4) antigen: soluble heterodimeric γδ TCR in leucine zipper format (TRDV1/TRGV4) (human) (main, as listed by the source): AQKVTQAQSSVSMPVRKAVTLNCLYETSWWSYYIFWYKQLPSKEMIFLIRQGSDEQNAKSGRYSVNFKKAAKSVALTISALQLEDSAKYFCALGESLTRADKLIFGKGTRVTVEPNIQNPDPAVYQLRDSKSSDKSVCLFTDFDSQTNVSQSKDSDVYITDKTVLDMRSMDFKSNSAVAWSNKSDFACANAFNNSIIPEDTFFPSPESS

Row | DELFIA signal, 100 nM L1 | Binder
2 | 18400 | B2
3 | 23800 | B3
4 | 1980 | B4
5 | 10400 | B5
6 | 163000 | B6
7 | 5900 | B7
8 | 17100 | B8
9 | 137000 | B9
10 | 65300 | B10

What follows are binders tested against L1 (DV1-GV4) antigen: soluble heterodimeric γδ TCR in leucine zipper format (TRDV1/TRGV4) (human) (assay: SPR (MASS-2), IgG captured via protein G, L1 as analyte, steady-state 1:1 fit).

Row | Kd [nM] | Binder
11 | 829 | B1

The binders below were run against L1 (DV1-GV4) antigen: soluble heterodimeric γδ TCR in leucine zipper format (TRDV1/TRGV4) (human) (assay: ELISA (DELFIA, time-resolved fluorometry) on antigen L1, titration of the mAb).

Row | EC50 (read off the curve) [µg/mL] | Binder
12 | 0.07 | B11
13 | 0.07 | B12
14 | 0.07 | B13
15 | 0.07 | B14
